This is an account of results in PMC12000298 (Communications Biology, 2025).

First the molecules themselves.
B1: SBP-His6-G2BR^AUP1 (peptide)
chain: GGSSSSWARQESLQERKQALYEYARRRFTER
B2: CUE-G2BR^AUP1 (AUP1 C-terminal region, aa292-410) (domain or fragment)
chain: SPDVQLATLAQRVKEVLPHVPLGVIQRDLAKTGCVDLTITNLLEGAVAFMPEDITKGTQSLPTASASKFPSSGPVTPQPTALTFAKSSWARQESLQERKQALYEYARRRFTERRAQEAD
B3: SBP-His6-G2BR^Gp78 (peptide)
chain: GGSSSADERQRMLVQRKDELLQQARKRFLNKS
B4: Ube2G2 (untagged, from 6xHis-SUMO-Ube2G2) (enzyme)
chain: MAGTALKRLMAEYKQLTLNPPEGIVAGPMNEENFFEWEALIMGPEDTCFEFGVFPAILSFPLDYPLSPPKMRFTCEMFHPNIYPDGRVCISILHAPGDDPMGYESSAERWSPVQSVEKILLSVVSMLAEPNDESGANVDASKMWRDDREQFYKIAKQIVQKSLGL

Holding throughout (test): SEC
The target of test [1] is B4.
The target in test [2] is B4. This is another data set of the same source.
Test [3] addresses GST-Gp78c (aa309-643, RING-CUE-G2BR) (UniProt Q9UKV5 309-643).

Where two headings read alike, the source gives them in different places.

GST-Gp78c (aa309-643, RING-CUE-G2BR), sequence (Q9UKV5 309-643): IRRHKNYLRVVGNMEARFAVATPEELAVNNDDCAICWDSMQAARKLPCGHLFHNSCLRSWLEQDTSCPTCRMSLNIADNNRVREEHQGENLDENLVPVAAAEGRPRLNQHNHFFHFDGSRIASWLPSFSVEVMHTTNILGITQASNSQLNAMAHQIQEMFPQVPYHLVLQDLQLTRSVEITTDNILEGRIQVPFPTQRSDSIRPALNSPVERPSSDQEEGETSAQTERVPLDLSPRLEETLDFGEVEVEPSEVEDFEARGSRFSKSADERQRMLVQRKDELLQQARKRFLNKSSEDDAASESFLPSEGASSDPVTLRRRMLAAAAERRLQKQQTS

In the case of B1, in test [1], the binding result is listed as “binds”.

With B2, in test [2], the binding result is “binds”.

As for B3, the binding result in test [1] is recorded as “binds”.

In the case of B4, in test [3], the binding result is “binds”.
